Source: US20240067706A1

Substrate: S proteins of SARS-CoV-2 and mutant strains thereof on pseudoviruses
Assay: cell-based or functional assay

B1: fully human monoclonal antibody 76E1 (antibody, V domains shown)
VH: EVQLVESGGGVVQPGGSLRLSCEASGFSFKDYGMHWIRQTPGKGLEWISRISGDTRGTSYVDSVKGRFIVSRDNSRNSLFLQMNSLRSEDTALYYCAALVIVAAGDDFDLWGQGTVVTVSS
VL: QSALTQPLSVSGSPGQSVTISCTGSSSDIGSYNFVSWYRQYPGKAPKVMIYEVNKRPSGVPVRFSGSKSGNTASLTVSGLQHEDEADYYCCSYGGRNNLIFGGGTKLTVL
- IC50 of pseudovirus neutralization (luciferase activity): 0.397 µg/mL
